Reference: PMC2132596

Tests used:
[1] = molecular target: purified human IgG1 (human); assay: cell adhesion assay
[2] = molecular target: human P-cadherin–Fc fusion protein (human) (UniProt P22223); assay: cell adhesion assay
human P-cadherin–Fc fusion protein (human), sequence (P22223 108-654): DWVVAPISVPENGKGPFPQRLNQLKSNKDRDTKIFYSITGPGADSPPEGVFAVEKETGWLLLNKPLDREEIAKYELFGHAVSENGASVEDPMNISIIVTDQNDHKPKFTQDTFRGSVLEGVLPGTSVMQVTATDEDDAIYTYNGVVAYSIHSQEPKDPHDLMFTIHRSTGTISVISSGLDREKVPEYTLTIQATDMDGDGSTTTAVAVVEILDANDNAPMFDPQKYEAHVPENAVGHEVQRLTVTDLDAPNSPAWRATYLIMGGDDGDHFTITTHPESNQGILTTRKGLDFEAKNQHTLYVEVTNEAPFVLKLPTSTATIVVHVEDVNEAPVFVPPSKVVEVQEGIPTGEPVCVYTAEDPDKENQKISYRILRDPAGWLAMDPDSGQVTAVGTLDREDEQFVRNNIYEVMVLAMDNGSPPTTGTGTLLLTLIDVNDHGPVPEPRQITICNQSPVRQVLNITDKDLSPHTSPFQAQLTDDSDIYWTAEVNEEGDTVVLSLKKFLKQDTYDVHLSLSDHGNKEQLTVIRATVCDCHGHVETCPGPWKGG

| percent of cells adhering [1] [%] | fold more coated fusion protein needed than of E-cadherin–Fc [2] [fold] | percent of cells adhering at 500 ng/well [2] [%] | Substance |
| --- | --- | --- | --- |
| < 3 |  |  | αEβ7 on JY′ cells transfected with full-length human αE (JY′-αE) (from UniProt P38570 19-1179; P26010 20-798) (complex) |
|  | > 100 | 40 | integrin αEβ7 of cultured human intestinal intraepithelial lymphocytes (from UniProt P38570 19-1179; P26010 20-798) (complex) |
